Reference: US20230277689

B1: plasma purified human CFI (Comptech) (protein)
chain: KVTYTSQEDLVEKKCLAKKYTHLSCDKVFCQPWQRCIEGTCVCKLPYQCPKNGTAVCATNRRSFPTYCQQKSLECLHPGTKFLNNGTCTAEGKFSVSLKHGNTDSEGIVEVKLVDQDKTMFICKSSWSMREANVACLDLGFQQGADTQRRFKLSDLSINSTECLHVHCRGLETSLAECTFTKRRTMGYQDFADVVCYTQKADSPMDDFFQCVNGKYISQMKACDGINDCGDQSDELCCKACQGKGFHCKSGVCIPSQYQCNGEVDCITGEDEVGCAGFASVTQEETEILTADMDAERRRIKSLLPKLSCGVKNRMHIRRKRIVGGKRAQLGDLPWQVAIKDASGITCGGIYIGGCWILTAAHCLRASKTHRYQIWTTVVDWIHPDLKRIVIEYVDRIIFHENYNAGTYQNDIALIEMKKDGNKKDCELPRSIPACVPWSPYLFQPNDTCIVSGWGREKDNERVFSLQWGEVKLISNCSKFYGNRFYEKEMECAGTYDGSIDACKGDSGGPLVCMDANNVTYVWGVVSWGENCGKPEFPGVYTKVANYFDWISYHVGRPFISQYNV
B2: human Complement Factor I expressed from pAAV.CFIco / AAV.CFIco (codon-optimised cDNA of SEQ ID NO: 8) (protein)
chain: KVTYTSQEDLVEKKCLAKKYTHLSCDKVFCQPWQRCIEGTCVCKLPYQCPKNGTAVCATNRRSFPTYCQQKSLECLHPGTKFLNNGTCTAEGKFSVSLKHGNTDSEGIVEVKLVDQDKTMFICKSSWSMREANVACLDLGFQQGADTQRRFKLSDLSINSTECLHVHCRGLETSLAECTFTKRRTMGYQDFADVVCYTQKADSPMDDFFQCVNGKYISQMKACDGINDCGDQSDELCCKACQGKGFHCKSGVCIPSQYQCNGEVDCITGEDEVGCAGFASVTQEETEILTADMDAERRRIKSLLPKLSCGVKNRMHIRRKRIVGGKRAQLGDLPWQVAIKDASGITCGGIYIGGCWILTAAHCLRASKTHRYQIWTTVVDWIHPDLKRIVIEYVDRIIFHENYNAGTYQNDIALIEMKKDGNKKDCELPRSIPACVPWSPYLFQPNDTCIVSGWGREKDNERVFSLQWGEVKLISNCSKFYGNRFYEKEMECAGTYDGSIDACKGDSGGPLVCMDANNVTYVWGVVSWGENCGKPEFPGVYTKVANYFDWISYHVGRPFISQYNV
B3: human Complement Factor I expressed from pAAV.CFI / AAV.CFI (cDNA of SEQ ID NO: 2, Genbank NM_000204.4) (protein)
chain: KVTYTSQEDLVEKKCLAKKYTHLSCDKVFCQPWQRCIEGTCVCKLPYQCPKNGTAVCATNRRSFPTYCQQKSLECLHPGTKFLNNGTCTAEGKFSVSLKHGNTDSEGIVEVKLVDQDKTMFICKSSWSMREANVACLDLGFQQGADTQRRFKLSDLSINSTECLHVHCRGLETSLAECTFTKRRTMGYQDFADVVCYTQKADSPMDDFFQCVNGKYISQMKACDGINDCGDQSDELCCKACQGKGFHCKSGVCIPSQYQCNGEVDCITGEDEVGCAGFASVAQEETEILTADMDAERRRIKSLLPKLSCGVKNRMHIRRKRIVGGKRAQLGDLPWQVAIKDASGITCGGIYIGGCWILTAAHCLRASKTHRYQIWTTVVDWIHPDLKRIVIEYVDRIIFHENYNAGTYQNDIALIEMKKDGNKKDCELPRSIPACVPWSPYLFQPNDTCIVSGWGREKDNERVFSLQWGEVKLISNCSKFYGNRFYEKEMECAGTYDGSIDACKGDSGGPLVCMDANNVTYVWGVVSWGENCGKPEFPGVYTKVANYFDWISYHVGRPFISQYNV

These proteins were tested against plasma purified C3b (Comptech), P01024.
plasma purified C3b (Comptech), P01024, sequence (P01024 whole entry, looked up): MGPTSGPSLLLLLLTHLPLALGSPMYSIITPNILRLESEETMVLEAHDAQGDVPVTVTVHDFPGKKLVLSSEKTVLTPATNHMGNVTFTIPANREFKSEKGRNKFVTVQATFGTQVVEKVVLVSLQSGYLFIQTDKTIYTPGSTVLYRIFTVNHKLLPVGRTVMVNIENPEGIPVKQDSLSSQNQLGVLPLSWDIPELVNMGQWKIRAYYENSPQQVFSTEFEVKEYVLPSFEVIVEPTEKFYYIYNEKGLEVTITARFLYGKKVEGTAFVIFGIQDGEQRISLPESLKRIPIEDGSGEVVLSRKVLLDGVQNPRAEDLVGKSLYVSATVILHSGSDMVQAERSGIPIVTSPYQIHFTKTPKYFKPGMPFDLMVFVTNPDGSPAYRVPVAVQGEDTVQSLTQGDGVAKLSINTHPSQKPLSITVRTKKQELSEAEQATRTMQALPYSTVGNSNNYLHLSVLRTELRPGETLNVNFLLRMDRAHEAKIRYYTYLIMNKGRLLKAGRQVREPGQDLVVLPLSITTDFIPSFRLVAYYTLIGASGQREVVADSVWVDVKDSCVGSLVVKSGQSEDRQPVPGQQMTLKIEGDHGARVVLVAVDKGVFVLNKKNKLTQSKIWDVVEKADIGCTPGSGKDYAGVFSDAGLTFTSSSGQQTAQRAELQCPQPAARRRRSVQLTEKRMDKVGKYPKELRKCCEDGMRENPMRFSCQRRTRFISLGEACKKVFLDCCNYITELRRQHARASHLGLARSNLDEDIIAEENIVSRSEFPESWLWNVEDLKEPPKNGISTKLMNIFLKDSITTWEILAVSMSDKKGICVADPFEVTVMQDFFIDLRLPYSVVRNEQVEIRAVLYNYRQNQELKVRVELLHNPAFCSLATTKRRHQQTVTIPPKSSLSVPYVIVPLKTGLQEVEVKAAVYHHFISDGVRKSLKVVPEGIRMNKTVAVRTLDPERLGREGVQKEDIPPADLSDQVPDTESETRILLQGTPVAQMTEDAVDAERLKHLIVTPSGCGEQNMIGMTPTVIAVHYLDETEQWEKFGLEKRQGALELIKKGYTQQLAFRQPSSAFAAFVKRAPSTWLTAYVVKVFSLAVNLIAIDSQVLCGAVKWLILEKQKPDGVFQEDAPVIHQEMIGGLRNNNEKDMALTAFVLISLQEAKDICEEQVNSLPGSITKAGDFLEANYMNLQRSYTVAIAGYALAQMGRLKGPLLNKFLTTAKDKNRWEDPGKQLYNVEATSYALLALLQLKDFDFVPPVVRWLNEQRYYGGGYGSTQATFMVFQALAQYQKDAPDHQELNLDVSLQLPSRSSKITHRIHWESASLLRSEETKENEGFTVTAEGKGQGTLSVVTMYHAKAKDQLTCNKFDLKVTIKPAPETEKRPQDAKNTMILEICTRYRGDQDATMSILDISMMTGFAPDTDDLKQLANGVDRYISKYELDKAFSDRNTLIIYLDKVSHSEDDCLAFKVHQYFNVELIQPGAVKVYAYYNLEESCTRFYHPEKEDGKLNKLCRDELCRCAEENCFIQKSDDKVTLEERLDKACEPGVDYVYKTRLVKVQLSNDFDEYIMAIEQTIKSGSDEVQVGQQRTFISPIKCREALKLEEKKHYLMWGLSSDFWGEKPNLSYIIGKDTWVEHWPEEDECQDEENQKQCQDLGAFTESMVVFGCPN

| Protein | C3b cleavage assay (with CFH as co-factor; immunoblot with clone 9) |
| --- | --- |
| B1 | C3b is degraded by CFIpl to iC3b and C3dg |
| B2 | CFI secreted from transduced cell lines is functionally active and cleaves the α-chain of C3b to iC3b |
| B3 | CFI secreted from transduced cell lines is functionally active and cleaves the α-chain of C3b to iC3b |
